Measured values as given in publication PMC4507774, “Arabidopsis seed-specific vacuolar aquaporins are involved in maintaining seed longevity under the control of ABSCISIC ACID INSENSITIVE 3”.

T1: ABI3-B3 (partial ABI3, B3 domain) (UniProt Q01593 559-720)
T1 sequence: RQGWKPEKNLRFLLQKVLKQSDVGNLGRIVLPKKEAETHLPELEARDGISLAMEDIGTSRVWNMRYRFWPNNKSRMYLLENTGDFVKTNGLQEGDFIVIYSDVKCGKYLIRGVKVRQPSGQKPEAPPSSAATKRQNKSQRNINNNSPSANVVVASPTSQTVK

B1: 31RY2-bio (TIP3;1 promoter RY2) (dsDNA)
DNA 1: ATCTACTTGGCACACATGCATGCTTAGTCAACACA
DNA 2: TGTGTTGACTAAGCATGCATGTGTGCCAAGTAGAT
B2: 32RY-bio (TIP3;2 promoter RY) (dsDNA)
DNA 1: CTTGATCCACTTGGCACACATGCATAGATATATAGTCACAGC
DNA 2: GCTGTGACTATATATCTATGCATGTGTGCCAAGTGGATCAAG
B3: 31RY2-cold (dsDNA)
DNA 1: B1 DNA 1
DNA 2: B1 DNA 2
B4: 31RY2-mu (dsDNA)
DNA 1: ATCTACTTGGCACAGCGCTAGCCTTAGTCAACACA
DNA 2: TGTGTTGACTAAGGCTAGCGCTGTGCCAAGTAGAT
B5: 32RY-cold (dsDNA)
DNA 1: B2 DNA 1
DNA 2: B2 DNA 2
B6: 32RY-mu (dsDNA)
DNA 1: CTTGATCCACTTGGCACAGCGTACTAGATATATAGTCACAGC
DNA 2: GCTGTGACTATATATCTAGTACGCTGTGCCAAGTGGATCAAG

Key:
[1] = target: T1, ABI3-B3 (partial ABI3, B3 domain); experiment: EMSA; EMSA: 1x LightShift binding buffer, 2.5% glycerol, 50 ng/ul poly(dI-dC), 50 mM KCl, 0.5 mM EDTA, 20 C, 30 min; pH not stated; details: protein: recombinant; tags: His (pET28a, Ni-NTA); label: biotin; blunt
[2] = target: T1, ABI3-B3 (partial ABI3, B3 domain); experiment: competition; 40- or 200-fold unlabelled competitor vs 31RY2-bio; EMSA: 1x LightShift binding buffer, 2.5% glycerol, 50 ng/ul poly(dI-dC), 50 mM KCl, 0.5 mM EDTA, 20 C, 30 min; pH not stated; details: protein: recombinant; tags: His (pET28a, Ni-NTA); blunt
[3] = target: T1, ABI3-B3 (partial ABI3, B3 domain); experiment: competition; 40- or 200-fold unlabelled competitor vs 32RY-bio; EMSA: 1x LightShift binding buffer, 2.5% glycerol, 50 ng/ul poly(dI-dC), 50 mM KCl, 0.5 mM EDTA, 20 C, 30 min; pH not stated; details: protein: recombinant; tags: His (pET28a, Ni-NTA); blunt

Binder | binding result [1] | binding result [2] | binding result [3]
B1 | binds | – | –
B2 | binds | – | –
B3 | – | binds | –
B4 | – | no binding | –
B5 | – | – | binds
B6 | – | – | no binding
